The sequences below were run on Escherichia coli TOP10 (assay: shrunken log2 fold change of peptide-encoding DNA abundance (4.5 h post-induction vs induction); higher = less antimicrobial activity (less host growth inhibition)). Settings: time post-induction: 4.5 h; library: site-saturation at positions 5, 18, 19, 20.
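Also: peptides expressed intracellularly from a pBAD plasmid library in pooled LB shake-flask culture, induced with 0.3% L-arabinose, DNA abundance read by NGS, three biological replicates, DESeq2 with apeglm shrinkage.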

Row | Sequence | shrunken log2 fold change
1 | RRIRVRPPRLPRPRPRPETHPRP | -0.0797
2 | RRIRFRPPRLPRPRPRPTDCPRP | -0.0151
3 | RRIRHRPPRLPRPRPRPRNLPRP | 0.0727
4 | RRIRERPPRLPRPRPRPIVWPRP | 0.0693
5 | RRIRNRPPRLPRPRPRPLEFPRP | -0.109
6 | RRIRQRPPRLPRPRPRPEEHPRP | -0.0135
7 | RRIRWRPPRLPRPRPRPFNRPRP | -0.0167
8 | RRIRMRPPRLPRPRPRPILGPRP | -0.00884
9 | RRIRIRPPRLPRPRPRPIMEPRP | -0.216
10 | RRIRVRPPRLPRPRPRPPYLPRP | -0.0916
11 | RRIRERPPRLPRPRPRPRGEPRP | -0.023
12 | RRIRKRPPRLPRPRPRPYKNPRP | -0.176
13 | RRIRLRPPRLPRPRPRPIIMPRP | -0.252
14 | RRIRMRPPRLPRPRPRPYTDPRP | -0.161
15 | RRIRNRPPRLPRPRPRPFWMPRP | -0.112
16 | RRIRRRPPRLPRPRPRPLNVPRP | -0.0701
17 | RRIRSRPPRLPRPRPRPQREPRP | -0.019
18 | RRIRLRPPRLPRPRPRPFNAPRP | -0.154
19 | RRIRGRPPRLPRPRPRPERNPRP | 0.855
20 | RRIRMRPPRLPRPRPRPDISPRP | -0.0568

Row | Sequence | shrunken log2 fold change
21 | RRIRSRPPRLPRPRPRPLVFPRP | -0.0421
22 | RRIRERPPRLPRPRPRPIMNPRP | -1.02
23 | RRIRCRPPRLPRPRPRPLPIPRP | -0.0776
24 | RRIRHRPPRLPRPRPRPANMPRP | -0.126
25 | RRIRIRPPRLPRPRPRPLGFPRP | -0.393
26 | RRIRERPPRLPRPRPRPGPEPRP | 0.129
27 | RRIRTRPPRLPRPRPRPKIYPRP | -0.191
28 | RRIRERPPRLPRPRPRPNMRPRP | 0.131
29 | RRIRWRPPRLPRPRPRPPVTPRP | 0.283
30 | RRIRDRPPRLPRPRPRPMLCPRP | -0.00642
31 | RRIRNRPPRLPRPRPRPHCYPRP | 0.0691
32 | RRIRARPPRLPRPRPRPLDHPRP | 0.267
33 | RRIRFRPPRLPRPRPRPKNSPRP | -0.533
34 | RRIRHRPPRLPRPRPRPYFVPRP | -0.84
35 | RRIRDRPPRLPRPRPRPYDFPRP | -0.178
36 | RRIRFRPPRLPRPRPRPLYEPRP | -0.664
37 | RRIRQRPPRLPRPRPRPGHTPRP | 0.0169
38 | RRIRVRPPRLPRPRPRPIHSPRP | -0.252
39 | RRIRPRPPRLPRPRPRPCWVPRP | 0.143
40 | RRIRFRPPRLPRPRPRPVQVPRP | -0.416

Row | Sequence | shrunken log2 fold change
41 | RRIRNRPPRLPRPRPRPHIPPRP | -0.793
42 | RRIRLRPPRLPRPRPRPCMDPRP | -0.351
43 | RRIRARPPRLPRPRPRPKWNPRP | 0.286
44 | RRIRARPPRLPRPRPRPPGSPRP | 0.759
45 | RRIRERPPRLPRPRPRPAMSPRP | -0.0829
46 | RRIRRRPPRLPRPRPRPAHDPRP | 0.873
47 | RRIRFRPPRLPRPRPRPVVIPRP | 0.0715
48 | RRIRGRPPRLPRPRPRPWNWPRP | 0.232
49 | RRIRDRPPRLPRPRPRPKYQPRP | -0.452
50 | RRIRYRPPRLPRPRPRPTLKPRP | -0.283
51 | RRIRARPPRLPRPRPRPVGEPRP | 0.482
52 | RRIRCRPPRLPRPRPRPWLMPRP | -0.159
53 | RRIRTRPPRLPRPRPRPIWWPRP | 0.261
54 | RRIRMRPPRLPRPRPRPVLHPRP | -0.309
55 | RRIRERPPRLPRPRPRPHNGPRP | 0.0109
56 | RRIRLRPPRLPRPRPRPKSHPRP | -0.261
57 | RRIRDRPPRLPRPRPRPSPCPRP | -0.0819
58 | RRIRLRPPRLPRPRPRPRQTPRP | 1.27
59 | RRIRKRPPRLPRPRPRPGVQPRP | 0.228
60 | RRIRRRPPRLPRPRPRPYIMPRP | -0.733

Source: the supplement of paper PMC9112550, “Optimization of the antimicrobial peptide Bac7 by deep mutational scanning” (BMC Biology, 2022)
